1 molecule from US20150133630A1 (UNIVERSITY OF TOKYO, published 2015) can be followed below.

In assay [1] the target is T1, human soluble FcRn (human, UniProt P55899 24-297; P61769 21-119, limits assumed, chemically biotinated with NHS-biotin in the mRNA display assays; amine-coupled to the sensor chip in the Biacore assay).
T1 construct: also called neonatal Fc receptor
The assay can be described thus: SPR, Biacore T100, FcRn amine-coupled to chip, peptide as analyte, phosphate buffer pH 6.0. The protocol:
(§1) In order to find whether a peptide alone interacts with FcRn in a pH dependent manner, the peptide 2G01D not having SGSGS on the C-terminal side of 8D-01 and amidated at the C-terminal was synthesized on a solid phase and a dissociation constant Kd binding constant was measured using Biacore T100 (GE Healthcare). FcRn was immobilized onto a sensor chip by an amine coupling method. The following is the peptide 2G01D:
(§2) On the other hand, a solid-phase synthesized peptide 2G01D was added as an analyte to a phosphate buffer having a pH 6.0 or 7.4 and a dissociation constant was measured.
(SPR reads the build-up and loss of mass on a sensor chip optically.)

Assay [2] addresses T1, human soluble FcRn. The assay can be described thus: SPR, Biacore T100, FcRn amine-coupled to chip, peptide as analyte, phosphate buffer pH 7.4. The protocol:
as §1, §2

The target in assay [3] is T1, human soluble FcRn. The assay can be described thus: SPR, Biacore T100, KD at pH 7.4 against KD at pH 6.0. The protocol:
as §1, §2

Bridge positions count the residues as written; N and C are the ends. Square brackets hold non-standard residues; d marks the D form. Tyr(3-NO2) = N[C@@H](Cc1ccc(O)c([N+](=O)[O-])c1)C(=O)O; Arg(NO2) = N=C(NCCC[C@H](N)C(=O)O)N[N+](=O)[O-]

T1 sequence (P55899 24-297 limits assumed, chain 1 of 2): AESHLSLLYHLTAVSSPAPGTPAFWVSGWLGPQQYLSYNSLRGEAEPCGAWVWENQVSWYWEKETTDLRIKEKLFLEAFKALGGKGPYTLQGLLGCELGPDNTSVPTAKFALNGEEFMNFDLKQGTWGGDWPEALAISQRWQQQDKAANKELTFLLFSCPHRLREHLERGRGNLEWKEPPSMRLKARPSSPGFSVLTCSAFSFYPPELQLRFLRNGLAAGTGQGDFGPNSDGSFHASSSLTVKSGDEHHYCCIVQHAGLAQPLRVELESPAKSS
T1 sequence (P61769 21-119 limits assumed, chain 2 of 2): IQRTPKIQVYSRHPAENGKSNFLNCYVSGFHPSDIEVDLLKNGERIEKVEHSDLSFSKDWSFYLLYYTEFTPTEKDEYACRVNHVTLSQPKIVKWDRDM

B1: peptide 2G01D (peptide)
peptide: {CH2CO}-[dNty]F[Tyr(3-NO2)]LYN[Arg(NO2)]GDPL[Tyr(3-NO2)]LCG-NH2
modifications: thioether N-14; not fully specified
notes: also called solid-phase synthesized peptide 2G01D
As to B1, in assay [1], the affinity, expressed as Kd, was 4.26 nM; the off-rate (koff) (in general, the rate constant with which the complex falls apart) worked out at 0.00394 s⁻¹; the association rate constant (kon) (as a rule, the second-order rate constant of association) was 925000 M⁻¹ s⁻¹. Further, in assay [2], the affinity, expressed as Kd, was 293 nM; the koff is 0.00955 s⁻¹; the kon was determined as 32600 M⁻¹ s⁻¹. Also, the “fold change in dissociation constant between pH 7.4 and pH 6.0” value in assay [3] was around 70 times.
